Among the data in article PMC5173319 (2016) are Kd and koff values, retold here.

Assay [1] addresses T1, Pyrobaculum calidifontis crenactin (Pyrobaculum calidifontis, UniProt A3MWN5 1-432). As to the kind of experiment: SPR; fast phase.
Assay [2] deals with T1, Pyrobaculum calidifontis crenactin. As to the kind of experiment: SPR; slow phase.
For assay [3] the target is unchanged. As to the kind of experiment: SPR; fast phase. The source holds these as a separate data set.
The target is the same in assay [4]. As to the kind of experiment: SPR; slow phase. The source holds these as a separate data set.
The target is the same in assay [5]. As to the kind of experiment: SPR.
Assay [6] has the same target. As to the kind of experiment: SPR. This is another data set of the same source.

T1 sequence (A3MWN5 whole entry): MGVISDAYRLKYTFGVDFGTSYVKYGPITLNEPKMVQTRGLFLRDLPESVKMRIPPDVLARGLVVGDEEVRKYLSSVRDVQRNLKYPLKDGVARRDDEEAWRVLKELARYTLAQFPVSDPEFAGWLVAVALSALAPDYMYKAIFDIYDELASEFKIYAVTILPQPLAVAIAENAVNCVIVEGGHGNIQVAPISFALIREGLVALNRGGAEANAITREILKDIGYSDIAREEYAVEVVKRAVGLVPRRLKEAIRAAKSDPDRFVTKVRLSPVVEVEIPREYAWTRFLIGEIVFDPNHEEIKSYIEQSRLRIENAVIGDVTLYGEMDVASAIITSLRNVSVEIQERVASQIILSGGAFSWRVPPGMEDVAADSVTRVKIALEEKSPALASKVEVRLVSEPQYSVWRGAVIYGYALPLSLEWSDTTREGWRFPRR

B1: Pyrobaculum calidifontis arcadin-2 (natural protein)
chain: MDFPKVLLIRHFTEVLGMKYAGEGGEVLWFEEGLNRVAVGIYFTDLYEEAELYKRVGALMGLGASKVFLAVLPDALAFVDPRYFKANGVGLVVVDPAKGVDGVEVKIFARARPAAVEPLKIDAVKAALHEYLASELKRVEESLFEKVRRYVDQRVEEVKRALQAVEEAKRAAPPVQRAAAESAQEPRGGIGENEWVKILRSKR
For the molecule B1, the figures for the Kd in assay [1] and in assay [2] were 24 nM and 59 nM, respectively. Further, the koff in assay [3] came to 0.019 s⁻¹; in assay [4], 0.0034 s⁻¹.

B2: arcadin-2 C-terminal peptide (residues 187-203) (peptide)
peptide: RGGIGENEWVKILRSKR
The molecule B2 yielded a Kd in assay [5] of 9 nM. In assay [6], this molecule came in with a koff of 0.019 s⁻¹.
